± gives the standard deviation of the averaged measurements.
test system: ATP; experiment: switch fluorescence ratio, 500 uM ATP over buffer (Cy3 cluster intensity, sum of 5 cycles each) (fold (ratio)); higher = stronger signal-on switching upon ATP binding; sequences stand for … in TCGTCGGCAGCGTCAGATGTGTATAAGAGACAGTTTTTTTTTTTTTTTTTTTTTTTTT…TC; conditions: aptamer strand: ATP DNA aptamer (quencher-CACCTGGGGGAGTATTGCGGAGGAAGG + anchor), 100 nM annealed; ATP concentration: 500 uM
Method in brief: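 Imaging in selection buffer was followed by imaging after 15 min with 500 uM ATP at 22 °C, for Cy3-labelled switching-strand clusters annealed to 100 nM quencher-labelled ATP aptamer on a modified Illumina MiSeq flow-cell. Five of these buffer/ATP cycles ran, separated by NaOH stripping and re-annealing. The fluorescence ratio per cluster is summed target-cycle over summed buffer-cycle Cy3 intensity, averaged per switch-domain sequence; clusters outside 100-1000 RFU were removed.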
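Note: ATP exposure 15 min at 22 °C before imaging.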

Row | Sequence | switch fluorescence ratio
1 | TAAGTGACGG | 1.04 ± 0.036
2 | TAAGTGGGGA | 0.959 ± 0.032
3 | TAAGTGGGTA | 0.991 ± 0.011
4 | TAAGTGGGTG | 1.01 ± 0.027
5 | TAAGTGGTGA | 1.04 ± 0.056
6 | TAAGTTGAGT | 1.01 ± 0.0093
7 | TAAGTTGTGT | 0.972 ± 0.036
8 | TAAGTTGTTG | 0.993 ± 0.042
9 | TAAGTTGTTT | 0.996 ± 0.013
10 | TAATAAAAAA | 0.9772 ± 0.0069
11 | TAATAAAGGT | 0.995 ± 0.025
12 | TAATAAATCA | 1 ± 0.036
13 | TAATACTTCG | 1.03 ± 0.012
14 | TAATAGAAGT | 0.979 ± 0.052
15 | TAATAGGGGG | 1.02 ± 0.035
16 | TAATAGGTTC | 0.972 ± 0.024
17 | TAATATGGGT | 0.988 ± 0.023
18 | TAATATGTTC | 1 ± 0.037
19 | TAATATTTCG | 1.05 ± 0.04
20 | TAATCAGGAA | 1.015 ± 0.0046
21 | TAATCCATTT | 1.02 ± 0.036
22 | TAATCCTCGT | 1.005 ± 0.0058
23 | TAATCCTTTG | 1.01 ± 0.048
24 | TAATCGCGGC | 1.31 ± 0.35
25 | TAATCGGGAA | 1 ± 0.017

Row | Sequence | switch fluorescence ratio
26 | TAATCTTTGG | 0.961 ± 0.035
27 | TAATGACTGT | 1.02 ± 0.045
28 | TAATGAGCTT | 0.995 ± 0.013
29 | TAATGATGAG | 0.987 ± 0.028
30 | TAATGATTGA | 0.985 ± 0.0078
31 | TAATGATTGC | 1.056 ± 0.0026
32 | TAATGCCAGG | 1.088 ± 0.0038
33 | TAATGCGTGG | 0.999 ± 0.032
34 | TAATGGGTAA | 1.01 ± 0.065
35 | TAATGGGTCC | 0.99 ± 0.019
36 | TAATGGTCCG | 1.03 ± 0.03
37 | TAATGGTTCG | 0.9962 ± 0.0025
38 | TAATGGTTTG | 1.08 ± 0.12
39 | TAATGTATTT | 1.01 ± 0.02
40 | TAATGTGGCC | 1.01 ± 0.039
41 | TAATGTGGGG | 0.9715 ± 0.0056
42 | TAATGTGTTG | 0.994 ± 0.014
43 | TAATGTTGGT | 1.025 ± 0.0014
44 | TAATGTTTAG | 0.99019 ± 0.00022
45 | TAATTAAATT | 0.9767 ± 0.0046
46 | TAATTAGTTA | 0.992 ± 0.025
47 | TAATTCGTCG | 0.997 ± 0.018
48 | TAATTGAAGA | 0.971 ± 0.012
49 | TAATTGACCG | 1.091 ± 0.0088
50 | TAATTGAGCA | 0.99 ± 0.019

Row | Sequence | switch fluorescence ratio
51 | TAATTGCCTT | 1.02 ± 0.017
52 | TAATTGGAGG | 0.9805 ± 0.0051
53 | TAATTGGGGC | 1.02 ± 0.012
54 | TAATTGTAAT | 1.04 ± 0.014
55 | TAATTGTAGG | 0.98 ± 0.032
56 | TAATTGTTTT | 1 ± 0.024
57 | TAATTTACAG | 1 ± 0.03
58 | TAATTTACTA | 1.04 ± 0.03
59 | TAATTTAGAA | 0.975 ± 0.021
60 | TAATTTCGGG | 0.986 ± 0.013
61 | TAATTTCTGT | 1.01 ± 0.024
62 | TAATTTGAAT | 1.028 ± 0.0063
63 | TAATTTGGAA | 1.009 ± 0.0095
64 | TAATTTTGAG | 0.9957 ± 0.0029
65 | TAATTTTTG | 0.9976 ± 0.0011
66 | TACAAACGGT | 1.17 ± 0.25
67 | TACAAGATGT | 1.01 ± 0.029
68 | TACAAGCTAA | 0.978 ± 0.032
69 | TACAAGTAT | 0.997 ± 0.028
70 | TACAAGTCGA | 1.016 ± 0.0042
71 | TACAATCGCC | 1.06 ± 0.029
72 | TACACGGGTT | 1.01 ± 0.035
73 | TACAGAGATT | 0.9778 ± 0.0084
74 | TACAGATTGG | 0.979 ± 0.025
75 | TACAGGACTC | 1.09 ± 0.012

Row | Sequence | switch fluorescence ratio
76 | TACAGGCTCG | 1.007 ± 0.01
77 | TACAGGGGGC | 1.12 ± 0.12
78 | TACAGGGGGT | 1.02 ± 0.062
79 | TACAGTTGCG | 1.02 ± 0.045
80 | TACATATCTT | 1.01 ± 0.025
81 | TACATCCGAG | 1.08 ± 0.029
82 | TACATGGGTT | 1.01 ± 0.0092
83 | TACATGTTAG | 1.01 ± 0.024
84 | TACCAATGGA | 1.02 ± 0.04
85 | TACCAATTAA | 1.01 ± 0.026
86 | TACCACGGGG | 1.04 ± 0.019
87 | TACCACTGCG | 1.04 ± 0.029
88 | TACCAGGGGT | 0.9909 ± 0.0039
89 | TACCATTTTG | 1 ± 0.028
90 | TACCCGGGGT | 0.9827 ± 0.0097
91 | TACCGGGGAG | 1.021 ± 0.0045
92 | TACCGTGGGG | 1.05 ± 0.038
93 | TACCTAGTTA | 1.03 ± 0.029
94 | TACCTATGTT | 0.979 ± 0.011
95 | TACCTCACTA | 1.42 ± 0.17
96 | TACCTGGGGG | 1.02 ± 0.03
97 | TACCTGGTTA | 0.999 ± 0.049
98 | TACCTTCGTT | 1.04 ± 0.073
99 | TACGAAGGGT | 0.987 ± 0.009
100 | TACGAATCT | 1.03 ± 0.056

Row | Sequence | switch fluorescence ratio
101 | TACGAATGAG | 0.9854 ± 0.0057
102 | TACGAATGGG | 1.01 ± 0.037
103 | TACGAGAGCC | 1.04 ± 0.037
104 | TACGAGCGAA | 1.34 ± 0.014
105 | TACGAGCTGA | 1.027 ± 0.0097
106 | TACGAGGGGG | 1 ± 0.021
107 | TACGAGGTGT | 1.06 ± 0.027
108 | TACGAGGTTT | 0.978 ± 0.03
109 | TACGATACAC | 1.44 ± 0.075
110 | TACGATAGGG | 1.21 ± 0.16
111 | TACGATATTT | 1.099 ± 0.0068
112 | TACGATGTGT | 1.03 ± 0.039
113 | TACGCCTGCA | 1.059 ± 0.0084
114 | TACGGAGGGA | 1.08 ± 0.029
115 | TACGGCTGGT | 1.008 ± 0.0031
116 | TACGGGAATG | 1.02 ± 0.036
117 | TACGGGCTTA | 1.007 ± 0.0044
118 | TACGGGGATG | 0.9963 ± 0.0056
119 | TACGGGGCTG | 1.01 ± 0.11
120 | TACGGGGGG | 1.02 ± 0.035
121 | TACGGGGGTT | 0.994 ± 0.011
122 | TACGGGGTCT | 1.04 ± 0.037
123 | TACGGGTAAT | 1.04 ± 0.019
124 | TACGGGTGTG | 1.016 ± 0.003
125 | TACGGTAGCT | 1.12 ± 0.051

Row | Sequence | switch fluorescence ratio
126 | TACGGTGAGG | 1.02 ± 0.011
127 | TACGTAACAG | 1.24 ± 0.064
128 | TACGTAGGTG | 1.04 ± 0.031
129 | TACGTTAGTA | 1.02 ± 0.033
130 | TACGTTATGC | 1.27 ± 0.013
131 | TACGTTCCTG | 1.03 ± 0.028
132 | TACGTTGACC | 1.26 ± 0.016
133 | TACGTTTTAA | 0.9938 ± 0.0087
134 | TACGTTTTTT | 1.05 ± 0.07
135 | TACTAAGAAT | 2.35 ± 1.9
136 | TACTAAGAGA | 1.03 ± 0.029
137 | TACTAAGTAT | 0.996 ± 0.069
138 | TACTACTTCT | 1.02 ± 0.023
139 | TACTAGAAGA | 1.03 ± 0.039
140 | TACTCACTGT | 1.219 ± 0.0069
141 | TACTCAGGTT | 2.25 ± 1.8
142 | TACTCCGGTT | 2.02 ± 0.19
143 | TACTGAGCAG | 1.019 ± 0.003
144 | TACTGAGCAT | 1.24 ± 0.086
145 | TACTGCAGAT | 1.002 ± 0.0025
146 | TACTGCGGAA | 1.79 ± 1.2
147 | TACTGGAGTA | 1.01 ± 0.018
148 | TACTGGCTGC | 1.02 ± 0.0078
149 | TACTGGGGGT | 1.04 ± 0.074
150 | TACTGTGGTT | 1 ± 0.018

Row | Sequence | switch fluorescence ratio
151 | TACTTAGTGG | 1.02 ± 0.017
152 | TACTTCAAGG | 1.02 ± 0.03
153 | TACTTCTCCA | 1.04 ± 0.016
154 | TACTTCTTTT | 0.958 ± 0.015
155 | TACTTGAATT | 1.02 ± 0.018
156 | TACTTGGACT | 1.06 ± 0.018
157 | TACTTGGCTT | 1.02 ± 0.031
158 | TACTTTAGCT | 1.109 ± 0.0069
159 | TACTTTCGGT | 1 ± 0.013
160 | TACTTTGGGA | 0.98 ± 0.043
161 | TACTTTTTAG | 1.02 ± 0.029
162 | TAGAAAAATG | 0.991 ± 0.029
163 | TAGAAAATGG | 1 ± 0.029
164 | TAGAAAATTT | 1 ± 0.022
165 | TAGAAACACT | 1.05 ± 0.02
166 | TAGAAAGGCC | 1.03 ± 0.037
167 | TAGAAAGGGA | 1.02 ± 0.039
168 | TAGAACAAAA | 0.99 ± 0.015
169 | TAGAAGGCTT | 0.9989 ± 0.0076
170 | TAGAAGGTTC | 1.17 ± 0.29
171 | TAGAAGGTTG | 0.972 ± 0.018
172 | TAGAAGTAGG | 1.01 ± 0.037
173 | TAGAATACTT | 0.996 ± 0.016
174 | TAGAATCAGC | 0.99 ± 0.07
175 | TAGACAAGAT | 1.04 ± 0.0028

Row | Sequence | switch fluorescence ratio
176 | TAGACCTCCC | 1.81 ± 0.16
177 | TAGACGGGGA | 0.984 ± 0.046
178 | TAGAGAAGCA | 1.012 ± 0.0061
179 | TAGAGAATCG | 1.065 ± 0.0062
180 | TAGAGCAGGT | 1.03 ± 0.011
181 | TAGAGGCAGC | 0.999 ± 0.044
182 | TAGAGGCCGG | 1 ± 0.003
183 | TAGAGGCTGA | 0.9937 ± 0.0054
184 | TAGAGGGT | 0.9989 ± 0.0016
185 | TAGAGTGGGG | 0.994 ± 0.023
186 | TAGATAATGC | 1.075 ± 0.0049
187 | TAGATATCTG | 0.974 ± 0.0098
188 | TAGATATGTA | 1.02 ± 0.043
189 | TAGATCGTTG | 0.977 ± 0.04
190 | TAGATGAGCA | 0.965 ± 0.07
191 | TAGATGCATG | 1 ± 0.031
192 | TAGATGGCGG | 1 ± 0.013
193 | TAGATGTCCG | 0.922 ± 0.098
194 | TAGATTGTA | 1.01 ± 0.029
195 | TAGATTTTAT | 1.01 ± 0.042
196 | TAGATTTTTG | 0.982 ± 0.036
197 | TAGCAATGGC | 2.42 ± 0.14
198 | TAGCACGCGG | 0.9748 ± 0.0041
199 | TAGCAGGACT | 1.76 ± 0.22
200 | TAGCATCTGT | 1 ± 0.03

From the supplement of paper PMC10126150
